Results from patent US11266715B2, “C3A receptor agonists for use against ischemic brain injury, stroke, traumatic brain injury, spinal cord injury and neurodegenerative disorders” (priority 2016, dated 2022).

How the values were obtained:
Assay type in all cases: in vivo, mouse
[1] = Body weight gain after neonatal HI and intranasal treatment; settings: across surgeries, treatments and genotypes
Source text: Unpaired t test was used to analyze the cue-induced fear conditioning experimental data. For the analysis of the total exploration time during the object recognition test and the open field experiment, one-way Analysis of Variance (ANOVA) was used, followed by a Tukey's multiple comparisons post-hoc test. Two-way ANOVA, with a Tukey's multiple comparisons post-hoc test, was used to analyze time spent exploring individual objects during the object recognition test, as well as the histomorphologic data and image analysis data. Two-way repeated measures ANOVA with a Tukey's multiple comparisons post-hoc test were used to analyze the body weight. Data are presented as mean±SEM. P values <0.05 were considered statistically significant.
To assess potential adverse effects of intranasal C3a administration on the overall animal health status and development, the inventors recorded animal weight gain across surgeries, treatments and different genotype conditions.

[2] = Body temperature monitoring for systemic anaphylactic response after intranasal C3a
Protocol: (§1) Purified human C3a peptide (Complement Technologies) was diluted in sterile phosphate buffered saline (PBS) to a concentration of 200 nM and a total of 20 μl (10 μl/nostril; corresponding to approximately 1.13 μg/kg body weight) of peptide solution or PBS was given intranasally to awake, hand-restrained mice held in a supine position. Solutions were administered through a pipette tip, drop-wise in 5 μl portions divided by 1 min intervals to allow for absorption. C3a or PBS was given every 24 hours on days 7 to 21 post-stroke for the short-term study or on days 7 to 28 post-stroke for the long-term study. Mice were assigned to C3a or PBS treatment using randomization stratified by body weight to avoid potential confounding effects of body weight on behavioural performance. The investigators carrying out behavioural studies and analysing data were blinded to treatment group. For the assessment of potential systemic anaphylactic response due to intranasal C3a inoculation, body temperature was monitored using a rectal temperature probe (Harvard Apparatus) inserted approximately 4 mm into the rectum of awake mice restrained by the scruff. Baseline temperature was taken before intranasal administration and 5, 15, 30, 45 and 75 min after C3a or PBS administration.

[3] = system: WT mice subjected to photothrombotic stroke in the motor cortex; test: Grid walking task after photothrombotic stroke
Protocol: Cortical photothrombosis was induced using the Rose Bengal method (Lee et al., 2007; Watson et al., 1985) with some modifications. Anesthesia was induced with isoflurane (Forene®, Abbott) in air and oxygen (1:1) initially at 5% and reduced to 2.5% during the surgical procedure. Body temperature was monitored by a rectal probe and maintained at 37° C. using a homeothermic control unit (Harvard Apparatus). Anesthetized mice were placed in a stereotaxic frame, the skull was exposed through a midline scalp incision and Rose Bengal (200 μl, 10 mg/ml solution in sterile saline, Sigma) was injected intraperitoneally. After 5 min, the skull and underlying brain tissue were illuminated for 12 min by a 2 mm diameter cold laser beam (50 mW, 561 nm; Cobolt AB) positioned at AP +0.5 mm and ML −2.7 mm relative to Bregma, targeting the border between left primary somatosensory and motor cortex (Porritt et al., 2012). For intervention experiments targeting motor cortex, stroke was induced as above with the following modifications: Transcranial illumination lasting 15 min was delivered using cold light source (LQ1600, Fiberoptic-Heim AG) equipped with 2 mm wide fiber optic probe and directed to AP +0 and ML −1.5 relative to Bregma. After illumination, the scalp was sutured and mice were placed in a warm cage for 45 min to recover from anesthesia prior to being returned to the home cage. Mice were provided with moist mashed food placed on the floor of the home cage and their weight was monitored daily for 7 days after surgery. There were no significant differences in body weight, body temperature (36.5±0.5° C.), duration of surgery, or post-stroke mortality between cohorts. Each cohort contained an even distribution of mice from the matched strains or treatment groups.
as §1
Functional impairment of mice treated intranasally with C3a or vehicle was assessed using a modified cylinder test and a grid walking task to closely evaluate forepaw function. Mice were tested once on each task one week before stroke induction to establish baseline performance. Next, they were tested on days 7, 14 and 21 (short-term study) or days 7, 14, 28, 42 and 56 (long-term study) post-stroke. […]

With “C3a: Purified human C3a peptide (Complement Technologies), C3a receptor agonist, amino acid sequence SEQ ID NO: 1” as the substance, how does the body weight gain [1] read?
Its body weight gain is “neither the surgery nor the C3a treatment affected body weight gain”.

And the “duration of the drop in body temperature” value ([2]; after intranasal C3a or PBS)?
Its value is 5 to 10 min.

And the “adverse or systemic effects of intranasal C3a” value ([2]; even after repeated administration, stroke studies)?
Its value is “did not observe any adverse or systemic effects”.

And the “adverse systemic response (hypersensitivity/anaphylaxis) to intranasal C3a” value ([2]; judged from body temperature)?
The value was “absence of an adverse systemic response”.

And the “change in body temperature after intranasal administration” value ([2]; rectal probe, awake mice, baseline and 5, 15, 30, 45, 75 min after intranasal C3a, same seen with PBS)?
Its value is “very small drop in body temperature”.

What about the “right foot faults vs PBS-treated mice at days 14 and 56 post-stroke” value ([3]; long-term study, C3a days 7-28, P=0.0097 and P=0.047, Mann-Whitney U test) of the same substance?
The value was “significantly fewer right foot faults”.

And the “grid walking performance day 56 vs pre-stroke baseline” value ([3]; long-term study, Dunn's test P=0.103)?
Its value is “did not differ from pre-stroke baseline levels”.

What about the “foot faults day 14 vs day 7 post-stroke (first week of treatment)” value ([3]; long-term study, P=0.041 Dunn's test, P=0.039 Wilcoxon test) of the same substance?
Its value is “significant reduction in foot faults”.

What about the “right paw foot faults, days 14 and 21 vs day 7” value ([3]; short-term study, C3a days 7-21, P=0.0545 and P=0.0839, Dunnett's test) of the same substance?
The value was “tendency toward reduced number of right paw foot faults”.

And the “grid walking performance vs baseline at all time points after stroke” value ([3]; short-term study, P<0.001, both groups)?
Its value is “significant impairment with respect to the baseline performance”.
